In the experiment the target is T1, FGFR1c-Klotho complex (UniProt O35082+P11362).
T1 construct: The ectodomain of murine Klotho (A35 to K982) was purified from culture media; FLAG (C); made in house; host or cells: E. coli (FGFR1c); HEK293 conditioned media (Klotho ectodomain)
T1 sequence (P11362 142-365): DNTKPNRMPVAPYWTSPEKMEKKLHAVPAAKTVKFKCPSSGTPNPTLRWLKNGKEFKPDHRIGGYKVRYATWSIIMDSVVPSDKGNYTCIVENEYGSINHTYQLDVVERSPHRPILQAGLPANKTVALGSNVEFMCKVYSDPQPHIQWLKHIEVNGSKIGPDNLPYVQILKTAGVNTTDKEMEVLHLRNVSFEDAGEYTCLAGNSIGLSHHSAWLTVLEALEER
T1 sequence (O35082 35-982): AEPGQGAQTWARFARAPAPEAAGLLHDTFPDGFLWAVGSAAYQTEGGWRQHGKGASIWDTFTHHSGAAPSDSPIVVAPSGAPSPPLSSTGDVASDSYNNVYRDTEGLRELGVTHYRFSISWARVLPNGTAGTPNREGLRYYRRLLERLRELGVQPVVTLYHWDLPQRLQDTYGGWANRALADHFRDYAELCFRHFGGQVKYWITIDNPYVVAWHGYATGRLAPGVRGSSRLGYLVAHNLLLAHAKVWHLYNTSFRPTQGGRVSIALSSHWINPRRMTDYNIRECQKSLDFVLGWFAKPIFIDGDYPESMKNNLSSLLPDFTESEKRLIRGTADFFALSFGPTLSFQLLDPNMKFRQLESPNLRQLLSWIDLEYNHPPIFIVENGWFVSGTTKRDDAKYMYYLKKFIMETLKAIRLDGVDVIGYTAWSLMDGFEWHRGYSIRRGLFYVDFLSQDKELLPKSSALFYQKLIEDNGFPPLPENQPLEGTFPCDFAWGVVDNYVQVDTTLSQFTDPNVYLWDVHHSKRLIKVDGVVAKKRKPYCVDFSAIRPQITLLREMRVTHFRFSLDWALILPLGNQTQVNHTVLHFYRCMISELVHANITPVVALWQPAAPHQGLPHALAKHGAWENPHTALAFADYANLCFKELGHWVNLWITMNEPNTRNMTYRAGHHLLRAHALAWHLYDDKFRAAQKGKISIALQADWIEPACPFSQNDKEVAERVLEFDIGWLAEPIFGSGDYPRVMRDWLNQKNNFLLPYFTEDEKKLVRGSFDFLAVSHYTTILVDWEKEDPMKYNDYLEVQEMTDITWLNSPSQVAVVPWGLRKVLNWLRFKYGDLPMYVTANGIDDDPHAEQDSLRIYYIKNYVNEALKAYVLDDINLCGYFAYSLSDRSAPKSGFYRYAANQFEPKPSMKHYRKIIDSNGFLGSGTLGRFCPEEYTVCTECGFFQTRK
Briefly: Size-exclusion chromatography of ternary complex formation. Particulars: 1.0 M NaCl, pH7.5. Format: binding, human FGFR1c, murine Klotho. The method, then:
Size-exclusion chromatography may also be used to determine that an agent specifically binds the binary FGFR-Klotho complex. One aspect of the present invention utilizes size-exclusion chromatography. The size-exclusion chromatography experiments were performed on a HiLoad™ 16/60 Superdex™ 200 prep grade column. Because of poor solubility of FGF23 proteins and FGFR1c ectodomain in low salt buffer, the experiments were carried out with 25 mM HEPES-NaOH buffer, pH7.5, containing 1.0 M NaCl. Sample injection volume was 0.3 to 1.0 ml, and the flow rate was 1.0 ml min^−1. Protein retention times were determined by absorbance at 280 nm. The column was calibrated with ferritin (440 kDa), immunoglobulin G (150 kDa), albumin (69.3 kDa), ovalbumin (44.3 kDa), and carbonic anhydrase (28.8 kDa). The void volume was determined using blue dextran 2,000. […]
Size-exclusion chromatography experiments were performed on a HiLoad™ 16/60 Superdex™ 200 prep grade column (GE Healthcare) mounted on an ÄKTApurifier (GE Healthcare). […] Protein retention times were determined by absorbance at 280 nm. […] The void volume was determined using blue dextran 2,000. […]
(In general: In gel filtration, larger molecules generally elute earlier.)

B1: FGF23^28-251: human FGF23 (A28 to I251), bioactive full-length ligand expressed in E. coli (protein, listed as Homo sapiens)
chain: ASPLLGSSWGGLIHLYTATARNSYHLQIHKNGHVDGAPHQTIYSALMIRSEDAGFVVITGVMSRRYLCMDFRGNIFGSHYFDPENCRFQHQTLENGYDVYHSPQYHFLVSLGRAKRAFLPGMNPPPYSQFLSRRNEIPLIHFNTPIPRRHTRSAEDDSERDPLNVLKPRARMTPAPASCSQELPSAEDNSPMASDPLGVVRGGRVNTHAGGTGPEGCRPFAKFI
In the case of B1, the “co-elution with the FGFR1c-Klotho complex” value is listed as “co-eluted with the FGFR1c-Klotho complex”.
